Patent publication US20230302100A1 (published 2023)

Tests used:
[1] = biological target: denosumab (XGEVA); assay: cell-based or functional assay
[2] = biological target: rabbit anti-BSA (ACRIS, #R1048P); assay: cell-based or functional assay

B1: pCART203 (enzyme)
chain: MDDYQRNATEAYAKEVPHQITSVWTKGVTPPEQFTQGEDVIHAPYLAHQGWYDITKAFDGKDNLLCGAATAGNMLHWWFDQNKTEIEAYLSKHPEKQKIIFNNQELFDLKAAIDTKDSQTNSQLFNYFRDKAFPNLSARQLGVMPDLVLDMFINGYYLNVFKTQSTDVNRPYQDKDKRGGIFDAVFTRGDQTTLLTARHDLKNKGLNDISTIIKQELTEGRALALSHTYANVSISHVINLWGADFNAEGNLEAIYVTDSDANASIGMKKYFVGINAHGHVAISAKKIEGENIGAQVLGLFTLSSGKDIWQKLSGGGHHHHHH
IgG2 (denosumab) cleavage, SDS-PAGE titration: fold efficacy over IdeZ [1]: ~3 fold vs pCART144
pCART124 ratio (fold change in potency relative to IdeS), ELISA-based potency assay [2]: ~3.5 fold over IdeS

B2: pCART201 (enzyme)
chain: MSVWTKGVTPLTPEQFRYNNEDVIHAPYLAHQGWYDITKAFDGKDNLLCGAATAGNMLHWWFDQNKTEIEAYLSKHPEKQKIIFNNQELFDLKAAIDTKDSQTNSQLFNYFRDKAFPNLSARQLGVMPDLVLDMFINGYYLNVFKTQSTDVNRPYQDKDKRGGIFDAVFTRGDQTTLLTARHDLKNKGLNDISTIIKQELTEGRALALSHTYANVSISHVINLWGADFNAEGNLEAIYVTDSDANASIGMKKYFVGINAHGHVAISAKKIEGENIGAQVLGLFTLSSGKDIWQKLSGGGHHHHHH
pCART124 ratio (fold change in potency relative to IdeS), ELISA-based potency assay [2]: 8 fold over pCART124

B3: pCART197 (enzyme)
chain: MDDYQRNATEAYAKEVPHQITSVWTKGVTPLTPEQFRYNNEDVIHAPYLANQGWYDITKAFDGKDNLLCGAATAGNMLHWWFDQNKTEIEAYLSKHPEKQKIIFRNQELFDLKEAIRTKDSQTNSQLFEYFRDKAFPYLSARQLGVMPDLVLDMFINGYYLNVFKTQSTDVKRPYQDKDKRGGIFDAVFTRGNQTTLLTARHDLKNKGLNDISTIIKEELTKGRALALSHTYANVSISHVINLWGADFNAEGNLEAIYVTDSDANASIGMKKYFVGINKHGHVAISAKKIEGENIGAQVLGLFTLSSGKDIWQKLNGGGHHHHHH
pCART124 ratio (fold change in potency relative to IdeS), ELISA-based potency assay [2]: 8 fold over pCART124
